test: yeast display, Sf9 membrane polyspecificity reagent, FACS + sequencing; frameworks hold sequencing errors
Summary of the method: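 Sorting gates, low and high (top ~1%), were placed on anti-HA fluorescence to track expression and on streptavidin fluorescence to track reagent binding. A clone's polyreactivity label is taken from the gate it came out of. The reagent was 10% biotinylated, detergent-solubilized Sf9 membrane, applied for 1 hour at 4 °C to galactose-induced yeast display cells.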

Sequence | polyreactivity (PSR sort gate)
QVQLVESGVGLVQAGGSLRLSCAASGRTLGVYTMGWYRQAPGKERELVAAITTGGSTKYADSVKGRFTISRDNAKNTVYLQMNSLKPEDTAVYYCATDLVFDKRYWYDYWGQGTQVTVSS | low polyreactivity
QVQLVESGVGLVQAGGSLRLSCAASGSIFESYAMGWYRQAPGKVRELVADITYDGGITYYADSVKGRFTISRDNAKNTVYLQMNSLKPEDTAVYYCAKQYYFTFWGQGTQVTVSS | low polyreactivity
QVQLVESGVGLVQAGGSLRLSCAASGSIFGYNDMGWYRQAPGKERELVAVITSGGSTNYADSVKGRFTISRDNAKNTVYLQMNSLKPEDTAVYYCNAEGVFGDGRSGFYWYDYWGQGTQVTVSS | low polyreactivity
QVQLVESGVGLVQAGGSLRLSCAASGSIFLHNAMGWYRQAPGKERELVAGITGSGGSTYYADSVKGRFTISRDNAKNTVYLQMNSLKPEDTAVYYCAAERYGYERYYWGQGTQVTVSS | high polyreactivity
QVQLVESGVGLVQAGGSLRLSCAASGSIFPPYAMGWYRQAPGKERELVAAITSGGRTNYADSVKGRFTISRDNAKNTVYLQMNSLKPEDTEVYYCAQTGSYAKIRPNNDYWGQGTQVTVSS | low polyreactivity
QVQLVESGVGLVQAGGSLRLSCAASGSIFYPYAMGWYRQAPGKERELVAAISSGGRTYDADSVKGRFTISRDNAKNTVYLQMNSLKPEDTAVSYCAARPKAYGRPPGYYWGQGTQVTVSS | high polyreactivity
QVQLVESGVGLVQAGGSLRLSCAASGSIFYQNAMGWYRQAPGKEREFVAAITWIGGSTYYADSVKGRFTISRDNAKNTVYLQMNSLKPEDTAVYYCARRLLRGSDWGQGTQVTVSS | high polyreactivity
QVQLVESGVGLVQAGGSLRLSCAASGSTFDANAMGWYIQAPGKERELVAAITSNGGSTYYADSVKGRFTISRDNAKNTVYLQMNSLKPEDTAVYYCASEQHTVQDYDYWGQGTQVTVSS | low polyreactivity
QVQLVESGVGLVQAGGSLRLSCAASGSTFGGNAMGWYRQAPGKEREKVADITFSGGSTSYADSVKGRFTISRDNAKKTVYLQMNSLKPEDTAVYYCNRDYPEIIVAGLDYWGQGSQVTVSS | low polyreactivity
QVQLVESGVGLVQAGGSLRLSCAASGSTFPKNVMGWYRQAPGKERELVAAINYSGTSTYYADSVKGRFTISRDNAKNTVYLQMNSLKPEDTAVYYCAARFPLVRYNYWGQGTQVTVSS | high polyreactivity
QVQLVESGVGLVQAGGSLRLSCAASGSTFQPYSMGRYRQAPGKERELVAAIRSLAGSTYYADSVKGRFTISRDNAKNTVYLQMNSLKPEDTAVYYCAAGYNPYVGLGWYPIYDFWGQGTQVTVSS | low polyreactivity
QVQLVESGVGLVQAGGSLRLSCAASGSTFSAYTMGWYRQAPGKERELVAAIRFDGGRTYYADSVKGRFTISRDNAKNTVYLQMNSLKPEDTAVYYCRAWQSYSYDYSGQGTQVTVSS | high polyreactivity
QVQLVESGVGLVQAGGSLRLSCAASGSTFSNNAMGWYIQAPGKERELVAVITGDGGSTYYADSVKGRFTISRDIAKNTVYLQTNSLKPEDTAVYSCNARSSRYSRFRQRFGYWGQVTQVTVSS | low polyreactivity
QVQLVESGVGLVQAGGSLRLSCAASGVTFYQYAMGWYRQAPGKERELVAAITRRGGSTSYADSVKGRFTISRDNAKNHVFLKMTRLIPEDTSVYYCNALYGSAFATQVESDYWGQGTQVNVSS | high polyreactivity
QVQLVESGVGLVQAGGSLRLSCAAYGRTFYYYAMGWYRQAPGKERELVAGITWSGGSTKYADSVKGRFTISRDNAKNTVYLQMNSLKPEDTAVYYCNARPPRWVRSMDYWGQGTQVTVSS | high polyreactivity
QVQLVESGVGLVQAGGSLRLSCADSGFTFFHYARGWYIQAPGKERELVAAIDYSAGSTYYADSVKGRFTISRDNAKNTVYLQMNSLKPEDTAVYYCAADARTSRGRRYYYWGQGTQVTVSS | low polyreactivity
QVQLVESGVGLVQAGGSLRLSCAPSGRTFFWYAMGWYRPAPGKERELVAAIRGAGRTNYADSVKGRFTISRDNAKYTVYLHMNSLKPEDTAVYYCAAQHYPWRRYDYWGLGTQVTVSS | high polyreactivity
QVQLVESGVGLVQAGGSLRLSCASSGRIFDLNSMGWYIQAPGKERELVAVIDRDGSTYYADSVKGRFTISRDNAKNTVYLQMNSLKPDDTAVYYCNKYWYSRHVRYWAYYAEQRYDYCGQGTQVTVSS | low polyreactivity
QVQLVESGVGLVQAGGSLRLSCASSGSIFTPYAMGCYRQAPGKESELVAAISRSGGSTYYADSVKGRFTISRDNAKNTVFLQMNRLKPEDTAVYYCAVVVYDIYGYESDYWGEGTQVTVSS | low polyreactivity
QVQLVESGVGLVQAGGSLRLSSAASGSTFGYYTMGWYRQAPGKERELVASISWSGASTHYADSVKGRFTISRDNAKNTVYLQMNSLKPDDTEVYYCAADWQQQPGTNSFDYWGQGTQVTVSS | low polyreactivity
QVQLVESGVGLVQAGGSLRLSWTASGRIFSWYAMGWYRQAPGKERELVADISWGTGSTYYADTVKGRFTISRDNAKHTVDLQMNSLKPEDTAVYYCAADPGYYYEYRRFYYWGQGTQVTVSS | high polyreactivity
QVQLVESGVGLVQAGGSLRLTCAASGRIFVTNAKGWYRQAPGKERELVAAITRGVNTNYADSVKGRFTISRDNAKNTVYLQMNSLKPEDTAVYYCAADSSYYYVYGYFPGYYYWGQGTQVTVSS | low polyreactivity

Sequence | polyreactivity (PSR sort gate)
QVQLVESGVGLVQAGGSLRVSCAASGRTFRYYAMGWYREAPGKERELVAAISSGTRTNYADSVTGRFTISRDNAKNTVYLQMNSLKPEDTAVYYCNAVTRRSAQGGHDYWGQGTQVTVSS | high polyreactivity
QVQLVESGVGLVQAGGSLSLSCAASGRTFYVNAMGWYRQAPGKERELVARITSGGSTYYGDSVKGRFTISRDNAKNTVYLQMNSLKPEDTAVYYCAKKYIGYQEGIHSTRRYDYWGQGTQVTVSS | low polyreactivity
QVQLVESGVGLVQAGGSLSLSCAASGSTFYKYTMGWYRQAPGKESELVAAISGSGTTTYYADSVKGRFTISRDYAKNTVFLQINSLKPEDTAVYYCAAETYSPDREYGYWGLGTQVTVSS | high polyreactivity
QVQLVESGVGLVQAGGSLSLSSAASGSIFGYYAMGWYRQAPGKERELVAAITSDGDTYYADSVKGRFTISRDNAKNTVYLQINSLKPEDTAVYYCNATYGGPYYIQNDYWGQGTQVTVSS | low polyreactivity
QVQLVESGVGLVQAVGSHRLSCAASGFTIINNDMGWYRQAPGKEREFVAAISDSDGTTYYADSVKGRFSISRDNAKNTVYLQMNSLKPEDTAVYYCAADVVPTWEDEYWGQGTQVTVSS | low polyreactivity
QVQLVESGVGLVQAVGSLRISCAACGSIFGRYGMGWYRQAPGKERELVAAITSGTRTNYADSVKGRFTISRDNAKNTVYLQMNSLKPEDTAVYYCNALRLRGIYEYGYWGLGTQVTVSS | low polyreactivity
QVQLVESGVGLVQAVGSLRLSCAASGIILHYYAMGWYRQAPGKERELVAAISARGGRTYYADSVKGRFTISRDNAKNTVYLQMNSLKPEDTAVYYCAKDTRRSGVSTYTGNMDYWGHGTQVTVSS | high polyreactivity
QVQLVESGVGLVQAVGSLRLSCAASGSILITNAMGWYRQAPGKERELVAAISSGGSTYYADSVKGRFTISRDNAKNTVYLQMNSLKPEDTAVYYFAADQLKVGREYVEYDYWGQGTQVTVSS | low polyreactivity
QVQLVESGVGSVQAGGSLRLSCAASGATFPGNAMGWYRQAPGKERELVAAIRDRGTSTYDADSVKGRFTISRDNAKNTVYLQMNSLKPEDTAVYYCAAASRVAKGRWRLYDYWGQGTQVTLSS | high polyreactivity
QVQLVESGVRVVQAGGSLRLRCAASGFTFRDYTMGWYRQAPGKERELVAAISRSGGSTYYADSVKGRFTISRDNAKNTVDLQMNSLKPEDTAVYYCAALWHAVSYADYDYWGQGTQVTVSS | high polyreactivity
QVQLVESRAGLVQAGGSLRLSCAASGRTSWVYAMGWYRHAPGKDRELVAAIRWRGSSTYYADSGKGRFTISRDNAKNTVYLQMNSLKPEVTAVYYCAAAFSFAQSFDSWGQGTQVTVSS | high polyreactivity
QVQLVESRGGLLQAGGSLRLSCAASGIIFGHYDMGWYRQAPGKEWELVAAITFTGDSTYYADSVKGRFTISRDNAKHTVYLQMNSLKPEDTAVYYCAAETPVPWGSWGYDYWGQGTQVTVSS | low polyreactivity
QVQLVESRGGLLQAGGTLRLSCAASGLTITTYTMGWSIQAPGTERELVASINYRGGRTYYADSVKGRFSISRDNAKNTVYLQMNSLKPEDTAVYYCAKSRYYRRRQYYHYDYCGQGTQVTVSS | high polyreactivity
QVQLVESRGGLVQAGGSLGLSCAASGPTFFYNAMGWYRQAPGKERELVAAISSGGGSTYYADSVKGRFTISRDNAKNTVYLQMNSLKPEDTAVYYCAGASYRQPGYGYWGQGTLVTVSS | high polyreactivity
QVQLVESRGGLVQAGGSLRISCAASGSTFVAYAMGWYRQAPAKERELVAAISYSGGSTYYADSVKGRFTISRDYAKNTVSLQMNCLKPEDTAVYYCAAEWSRHYYYGPRYDYWGQGTQVSVSS | low polyreactivity
QVQLVESRGGLVQAGGSLRLSCAASGATFNHYAMGWYRQAPGKERELVAAITKSGGSTYADSVKGRFTISRDNAKKTVYLQMNSLKPEDTAVYYCAAGRRKYGTKGRGDYWGQGSQVTVSS | low polyreactivity
QVQLVESRGGLVQAGGSLRLSCAASGFIFDKYAMGWYRQAPGKERELVATITSGGSTYYADSVKGRFTISRDNAKNTVYLQMNSLKPEDTAVYYCAALDYGYRWYRYYYWGQGTQVTVSS | high polyreactivity
QVQLVESRGGLVQAGGSLRLSCAASGFIFSSYAMGWYRQAHGKERELVAAITSGGSTNYADSVKGRFTISRDNAKNTVYLQMNSLKPEDTAVYYCATVPGGSWFFHWWSTGGDDEYWGQGTQVTVSS | low polyreactivity
QVQLVESRGGLVQAGGSLRLSCAASGFIFWYYAMGWYRQAPGKERALVAAINWSGTSTNYADSVKGRFTISRDNAKNTVYLQMNSLIPEDTAVYYCNTRIWSSSYDVTYDYWGQGTQVTVSS | low polyreactivity
QVQLVESRGGLVQAGGSLRLSCAASGFTFYLNALGWYRPAPGKERELVAAISYSDGSTYYADSVKGRFTISRDNAKNTVYLQMNSLKPEDTAVYYCAADTTDPGGAYQLMDYCGQGTQVTVSS | high polyreactivity
QVQLVESRGGLVQAGGSLRLSCAASGIIFDTNAMGWYRQAPGKERELVATITQRGGTTYYADSVKGRFTISRDNAKNTVYLQMNSLKPEDTAVYYCNAGPVRLPYDSWGQGTQVTVSS | low polyreactivity

From the nanobody polyreactivity screen of Harvey et al. (2022)
